B1: SI-1C5 (nimotuzumab-based anti-EGFR monoclonal antibody) (antibody, V domains shown)
VH: QVQLQQSGAEVKKPGSSVKVSCKASGYTFTNYYIYWVRQAPGQGLEWIGGINPTSGGSNFNEKFKTRVTITVDESTNTAYMELSSLRSEDTAFYFCARQGLWFDSDGRGFDFWGQGSTVTVSS
VL: DIQMTQSPSSLSASVGDRVTITCRSSQNIVHSNGNTYLDWYQQTPGKAPKLLIYKVSNRFSGVPSRFSGSGSGTDFTFTISSLQPEDIATYYCFQYSHVPWTFGQGTKLQITR
B2: SI-71M1, humanized cetuximab monoclonal antibody (antibody, human IgG1, kappa, V domains shown)
VH: QVQLQQSGPGLVKPSETLSITCTVSGFSLTNYGVHWIRQAPGKGLEWLGVIWSGGNTDYNTPFTSRFTITKDNSKNQVYFKLRSVRADDTAIYYCARALTYYDYEFAYWGQGTLVTVSS
VL: EIVLTQSPSTLSVSPGERATFSCRASQSIGTNIHWYQQKPGKPPRLLIKYASESISGIPDRFSGSGSGTEFTLTISSVQSEDFAVYYCQQNNNWPTTFGPGTKLTVLR
notes: also called Hu-Cetuximab; humanized cetuximab mAb
B3: SI-71X14, bispecific tetravalent anti-EGFR x HER3 antibody (humanized cetuximab IgG with MM-111 anti-HER3 scFv at the C-terminus of each heavy chain) (bispecific antibody)
heavy: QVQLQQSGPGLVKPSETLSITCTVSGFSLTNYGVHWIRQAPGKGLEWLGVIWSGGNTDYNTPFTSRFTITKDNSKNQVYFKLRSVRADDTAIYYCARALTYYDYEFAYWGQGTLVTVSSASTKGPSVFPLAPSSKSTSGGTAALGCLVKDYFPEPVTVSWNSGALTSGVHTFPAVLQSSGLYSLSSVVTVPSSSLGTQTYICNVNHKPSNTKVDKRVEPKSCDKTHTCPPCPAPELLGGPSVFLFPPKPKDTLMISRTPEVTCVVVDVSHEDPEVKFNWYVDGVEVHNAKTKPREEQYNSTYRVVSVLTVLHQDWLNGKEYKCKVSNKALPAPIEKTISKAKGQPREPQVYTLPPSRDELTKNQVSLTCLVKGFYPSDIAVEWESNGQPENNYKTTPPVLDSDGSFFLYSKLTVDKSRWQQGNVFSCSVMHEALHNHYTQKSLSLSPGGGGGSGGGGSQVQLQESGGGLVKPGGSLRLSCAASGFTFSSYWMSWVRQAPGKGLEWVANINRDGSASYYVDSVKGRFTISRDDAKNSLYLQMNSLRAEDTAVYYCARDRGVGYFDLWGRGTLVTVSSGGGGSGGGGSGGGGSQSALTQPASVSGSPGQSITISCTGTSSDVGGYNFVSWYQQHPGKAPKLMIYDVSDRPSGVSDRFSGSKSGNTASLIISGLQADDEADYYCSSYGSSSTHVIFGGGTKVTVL
light: EIVLTQSPSTLSVSPGERATFSCRASQSIGTNIHWYQQKPGKPPRLLIKYASESISGIPDRFSGSGSGTEFTLTISSVQSEDFAVYYCQQNNNWPTTFGPGTKLTVLRTVAAPSVFIFPPSDEQLKSGTASVVCLLNNFYPREAKVQWKVDNALQSGNSQESVTEQDSKDSTYSLSSTLTLSKADYEKHKVYACEVTHQGLSSPVTKSFNRGEC
notes: VH position 85 (Kabat) is D instead of cetuximab's N

What was measured:
[1] = target: T1, His-tagged human EGFR extracellular domain (expressed and purified in-house) (human, UniProt P00533 25-645); assay: BLI, antibody on AHC tips, monomeric EGFR ECD in solution, 1:1 fit
T1 construct: extracellular domain; Monomeric, in solution; also called EGFR (purified in-house); not shown: His tag

[2] = target: T2, His-tagged human HER3 extracellular domain (Acro ER3-H5223) (human, UniProt P21860 20-643); assay: BLI (Octet), antibody captured on AHC sensors; tandem: 100 nM EGFR 720 s, then 100 nM EGFR + 400 nM HER3 720 s, then buffer; EGFR+HER3 step
T2 construct: extracellular domain; Monomeric, in solution; not shown: His tag

[3] = target: T3, human His-tagged HER3 extracellular domain (in-house expressed) (human, UniProt P21860 20-643); assay: BLI sandwich assay, antibody held on immobilized EGFR, HER3 ECD in solution
T3 construct: extracellular domain; also called HER3 ECD (in-house expressed); not shown: His tag

[4] = target: T4, biotinylated human EGFR extracellular domain (Acro EGF-H82E3) (human, UniProt P00533 25-645, biotinylated (site not stated)); assay: BLI avidity format, biotinylated EGFR ECD on SA sensors, antibody in solution, 1:1 fit
T4 construct: extracellular domain; Loaded onto streptavidin (SA) sensors; also called immobilized EGFR

[5] = target: T3, human His-tagged HER3 extracellular …; assay: BLI sandwich assay, antibody held on immobilized biotinylated EGFR, 500 nM HER3 ECD in solution, 1:1 fit
[6] = target: T2, His-tagged human HER3 extracellular …; assay: BLI, antibody on AHC tips, monomeric HER3 ECD in solution, 1:1 fit

| Binder | Kd [1] | koff [1] | kon [1] | binding result [2] | binding result [3] | Kd [4] | koff [4] | kon [4] | Kd [5] | koff [5] | kon [5] | Kd [6] | koff [6] | kon [6] |
| --- | --- | --- | --- | --- | --- | --- | --- | --- | --- | --- | --- | --- | --- | --- |
| B1 | 15.8 nM | 0.00178 s⁻¹ | 113000 M⁻¹ s⁻¹ | – | – | – | – | – | – | – | – | – | – | – |
| B2 | 4.76 nM | 0.0013 s⁻¹ | 272000 M⁻¹ s⁻¹ | no binding (tested: 400 nM) | no binding (tested: 500 nM) | < 0.001 nM | < 1e-07 s⁻¹ | 466000 M⁻¹ s⁻¹ | – | – | – | – | – | – |
| B3 | 4.61 nM | 0.00122 s⁻¹ | 264000 M⁻¹ s⁻¹ | – | – | < 0.001 nM | < 1e-07 s⁻¹ | 353000 M⁻¹ s⁻¹ | 922 nM | 0.07 s⁻¹ | 75900 M⁻¹ s⁻¹ | 117 nM | 0.0308 s⁻¹ | 265000 M⁻¹ s⁻¹ |

Source: patent US20230374157A1 (SYSTIMMUNE, published 2023)
